Measurements as given in US20190000964A1.

Experiments:
[1] = target: human CCR5 receptor (hCCR5) (human) (UniProt P51681); assay: inhibition of gp120/sCD4 complex binding to CCR5-expressing Cf2Th cells by competing peptide
[2] = target: human CCR5 receptor (hCCR5) (human) (UniProt P51681)
[3] = target: human CCR5 receptor (hCCR5) (human) (UniProt P51681); assay: 0.5 nM non-labeled gp120 Bal against 0.5 nM FITC-gp120Bal on Cf2Th/synCCR5 cells with sCD4

Sequence of human CCR5 receptor (hCCR5) (human) (P51681 whole entry): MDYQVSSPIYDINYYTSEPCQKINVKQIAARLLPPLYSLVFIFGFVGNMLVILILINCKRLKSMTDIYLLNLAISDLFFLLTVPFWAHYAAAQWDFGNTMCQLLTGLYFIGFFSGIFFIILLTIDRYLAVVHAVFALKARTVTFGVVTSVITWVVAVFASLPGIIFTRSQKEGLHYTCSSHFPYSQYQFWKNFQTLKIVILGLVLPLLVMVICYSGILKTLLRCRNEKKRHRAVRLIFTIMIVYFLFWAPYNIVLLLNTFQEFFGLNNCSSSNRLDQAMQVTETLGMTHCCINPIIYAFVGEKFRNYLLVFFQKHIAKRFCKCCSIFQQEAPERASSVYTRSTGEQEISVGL

All D, ttnyt (peptide)
EC50 [1]: 2 nM

gp120 Bal-sCD4 complex (from UniProt P01730 26-396)
Kd [2]: 0.46 nM | percent inhibition of FITC-gp120Bal binding [3]: > 80%

gp120 CM235-sCD4 complex (from UniProt P01730 26-396)
Kd [2]: 0.77 nM
